The target in test [1] is ARHGEF2 (human) (UniProt Q92974). Briefly: co-IP with anti-FLAG, mass spectrometry; lysate of cells with N-FLAG B3GNT2.
Test [2] has as its target DNAJB11 (human) (UniProt Q9UBS4). The test is described as above.
For test [3], the target named is EIF4A1 (human) (UniProt P60842). The description is as above.
Test [4] addresses EPRS (human) (UniProt P07814). The test is described as above.
Test [5] addresses HSPD1 (human) (UniProt P10809). Described as above.
Test [6] deals with ILF3 (human) (UniProt Q12906). Described as above.
For test [7], the target named is MARS (human) (UniProt P56192). The description is as above.
Test [8] deals with MYO1C (human) (UniProt O00159). Described as above.
Test [9] deals with PIGR (human) (UniProt P01833). The description is as above.
Sequence of PIGR (human) (P01833 19-764 limits assumed): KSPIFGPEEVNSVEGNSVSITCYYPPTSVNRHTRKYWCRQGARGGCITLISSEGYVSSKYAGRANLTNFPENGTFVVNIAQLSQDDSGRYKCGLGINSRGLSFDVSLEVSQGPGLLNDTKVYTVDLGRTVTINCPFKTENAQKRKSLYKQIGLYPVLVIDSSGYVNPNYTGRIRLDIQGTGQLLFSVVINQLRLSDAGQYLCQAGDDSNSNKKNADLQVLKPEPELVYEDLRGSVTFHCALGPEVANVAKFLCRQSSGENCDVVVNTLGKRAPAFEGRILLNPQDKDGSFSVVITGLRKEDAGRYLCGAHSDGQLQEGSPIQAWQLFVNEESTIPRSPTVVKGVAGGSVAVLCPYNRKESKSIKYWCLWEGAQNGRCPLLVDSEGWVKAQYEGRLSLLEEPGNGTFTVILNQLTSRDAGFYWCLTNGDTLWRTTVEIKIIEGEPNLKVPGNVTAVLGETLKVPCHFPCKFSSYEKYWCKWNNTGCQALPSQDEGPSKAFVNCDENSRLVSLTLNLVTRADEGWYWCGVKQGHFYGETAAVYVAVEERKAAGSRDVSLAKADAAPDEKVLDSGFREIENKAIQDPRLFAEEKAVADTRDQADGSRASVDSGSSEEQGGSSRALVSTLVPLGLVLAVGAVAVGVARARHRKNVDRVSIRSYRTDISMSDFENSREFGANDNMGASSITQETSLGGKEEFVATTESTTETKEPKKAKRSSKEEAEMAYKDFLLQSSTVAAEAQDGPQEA
In test [10] the target is PSMD4 (human) (UniProt P55036). Described as above.
Sequence of PSMD4 (human) (P55036 whole entry): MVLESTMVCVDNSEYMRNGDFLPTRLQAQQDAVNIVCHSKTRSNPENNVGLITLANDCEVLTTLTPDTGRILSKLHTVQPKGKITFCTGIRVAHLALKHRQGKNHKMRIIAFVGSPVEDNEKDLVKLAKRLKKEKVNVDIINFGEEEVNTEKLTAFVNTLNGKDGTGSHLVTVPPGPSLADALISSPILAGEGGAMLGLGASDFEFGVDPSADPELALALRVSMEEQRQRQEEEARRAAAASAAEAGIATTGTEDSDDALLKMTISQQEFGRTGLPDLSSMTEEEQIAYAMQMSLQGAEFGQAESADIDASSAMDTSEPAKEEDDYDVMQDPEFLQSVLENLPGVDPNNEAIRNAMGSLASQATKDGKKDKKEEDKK
The target of test [11] is SLC25A5 (human) (UniProt P05141). The test is described as above.
For test [12], the target named is SPRR1A (human) (UniProt P35321). The description is as above.
Sequence of SPRR1A (human) (P35321 whole entry): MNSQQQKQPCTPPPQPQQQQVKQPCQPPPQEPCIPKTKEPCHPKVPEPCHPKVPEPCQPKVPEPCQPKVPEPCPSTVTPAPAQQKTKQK
Test [13] addresses UGGT1 (human) (UniProt Q9NYU2). Described as above.
The target of test [14] is ZC3HAV1 (human) (UniProt Q7Z2W4). The test is described as above.
Test [15] concerns the target ARF4 (human) (UniProt P18085). Briefly: co-IP with control IgG, mass spectrometry; lysate of cells with N-FLAG B3GNT2.
For test [16], the target named is ARHGEF2 (human) (UniProt Q92974). The description is as above.
Test [17] has as its target CCT2 (human) (UniProt P78371). Described as above.
The target of test [18] is EIF4A1 (human) (UniProt P60842). The description is as above.
Test [19] deals with EPRS (human) (UniProt P07814). The test is described as above.
Sequence of EPRS (human) (P07814 whole entry): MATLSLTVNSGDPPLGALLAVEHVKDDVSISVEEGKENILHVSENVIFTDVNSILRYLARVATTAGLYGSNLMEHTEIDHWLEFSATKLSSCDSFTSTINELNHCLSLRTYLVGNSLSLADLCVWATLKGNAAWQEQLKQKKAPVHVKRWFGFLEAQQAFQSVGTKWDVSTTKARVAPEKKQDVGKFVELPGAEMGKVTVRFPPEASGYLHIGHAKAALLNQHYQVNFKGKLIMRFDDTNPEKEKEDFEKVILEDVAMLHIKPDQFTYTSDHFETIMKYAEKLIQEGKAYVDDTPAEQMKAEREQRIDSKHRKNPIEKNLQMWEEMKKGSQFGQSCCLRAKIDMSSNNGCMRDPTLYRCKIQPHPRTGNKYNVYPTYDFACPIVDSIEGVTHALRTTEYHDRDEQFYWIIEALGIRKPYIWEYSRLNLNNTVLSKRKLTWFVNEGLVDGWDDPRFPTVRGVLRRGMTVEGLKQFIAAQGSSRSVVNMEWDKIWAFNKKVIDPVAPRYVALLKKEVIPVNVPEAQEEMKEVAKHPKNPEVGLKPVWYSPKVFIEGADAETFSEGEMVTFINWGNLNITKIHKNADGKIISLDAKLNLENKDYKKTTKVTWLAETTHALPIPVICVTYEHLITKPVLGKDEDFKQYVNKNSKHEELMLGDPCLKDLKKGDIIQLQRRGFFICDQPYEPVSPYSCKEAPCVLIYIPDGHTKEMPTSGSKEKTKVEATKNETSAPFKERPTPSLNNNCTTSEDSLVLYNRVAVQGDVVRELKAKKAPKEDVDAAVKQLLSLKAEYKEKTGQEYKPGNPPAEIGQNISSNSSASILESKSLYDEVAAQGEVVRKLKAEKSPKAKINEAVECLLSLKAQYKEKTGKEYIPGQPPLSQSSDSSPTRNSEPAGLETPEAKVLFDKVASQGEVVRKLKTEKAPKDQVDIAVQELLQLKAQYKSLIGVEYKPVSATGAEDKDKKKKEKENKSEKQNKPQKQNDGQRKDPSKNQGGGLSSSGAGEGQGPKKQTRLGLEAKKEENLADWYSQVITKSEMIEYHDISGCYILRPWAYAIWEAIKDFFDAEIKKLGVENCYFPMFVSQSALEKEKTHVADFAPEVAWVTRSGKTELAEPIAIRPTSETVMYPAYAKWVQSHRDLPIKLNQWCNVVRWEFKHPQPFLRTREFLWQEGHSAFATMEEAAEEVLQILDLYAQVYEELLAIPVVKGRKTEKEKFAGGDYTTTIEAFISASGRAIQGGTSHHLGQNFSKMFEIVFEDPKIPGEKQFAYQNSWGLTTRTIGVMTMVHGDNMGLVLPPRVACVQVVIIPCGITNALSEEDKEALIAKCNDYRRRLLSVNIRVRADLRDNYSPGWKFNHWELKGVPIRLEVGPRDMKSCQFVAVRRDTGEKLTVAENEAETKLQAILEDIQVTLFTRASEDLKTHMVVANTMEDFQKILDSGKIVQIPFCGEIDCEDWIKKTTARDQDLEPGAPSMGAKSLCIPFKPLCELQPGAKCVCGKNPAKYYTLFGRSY
For test [20], the target named is GAPDH (human) (UniProt P04406). The test is described as above.
The target of test [21] is ILF3 (human) (UniProt Q12906). The test is described as above.
Test [22] has as its target MAGT1 (human) (UniProt Q9H0U3). The test is described as above.
The target of test [23] is MSN (human) (UniProt P26038). Described as above.
Test [24] addresses NPM1 (human) (UniProt P06748). Described as above.
Test [25] deals with PIGR (human) (UniProt P01833). Described as above.
Test [26] has as its target PSMD4 (human) (UniProt P55036). Described as above.
Test [27] concerns the target RARS (human) (UniProt P54136). The description is as above.
Test [28] has as its target RPL32 (human) (UniProt P62910). The test is described as above.
The target in test [29] is RPL9 (human) (UniProt P32969). Described as above.
Test [30] deals with RPS27 (human) (UniProt P42677). Described as above.
Test [31] addresses SDF4 (human) (UniProt Q9BRK5). The test is described as above.
Test [32] deals with SEL1L (human) (UniProt Q9UBV2). The test is described as above.
Test [33] concerns the target SLC27A4 (human) (UniProt Q6P1M0). The description is as above.
Test [34] addresses SPRR1A (human) (UniProt P35321). The test is described as above.
The target in test [35] is STAU2 (human) (UniProt Q9NUL3). Described as above.
For test [36], the target named is TOR1AIP2 (human) (UniProt Q8NFQ8). The test is described as above.
The target of test [37] is ZC3HAV1 (human) (UniProt Q7Z2W4). Described as above.

Sequence of EIF4A1 (human) (P60842 2-406 limits assumed): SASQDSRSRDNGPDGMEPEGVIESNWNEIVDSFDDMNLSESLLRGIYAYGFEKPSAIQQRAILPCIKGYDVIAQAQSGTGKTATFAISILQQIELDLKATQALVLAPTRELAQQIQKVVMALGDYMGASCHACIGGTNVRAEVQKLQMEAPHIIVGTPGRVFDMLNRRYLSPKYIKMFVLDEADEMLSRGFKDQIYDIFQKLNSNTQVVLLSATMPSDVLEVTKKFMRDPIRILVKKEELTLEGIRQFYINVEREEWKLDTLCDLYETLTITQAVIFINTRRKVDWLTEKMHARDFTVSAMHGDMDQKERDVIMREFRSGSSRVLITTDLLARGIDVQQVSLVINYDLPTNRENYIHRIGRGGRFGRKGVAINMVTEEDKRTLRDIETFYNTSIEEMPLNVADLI
Sequence of UGGT1 (human) (Q9NYU2 43-1555 limits assumed): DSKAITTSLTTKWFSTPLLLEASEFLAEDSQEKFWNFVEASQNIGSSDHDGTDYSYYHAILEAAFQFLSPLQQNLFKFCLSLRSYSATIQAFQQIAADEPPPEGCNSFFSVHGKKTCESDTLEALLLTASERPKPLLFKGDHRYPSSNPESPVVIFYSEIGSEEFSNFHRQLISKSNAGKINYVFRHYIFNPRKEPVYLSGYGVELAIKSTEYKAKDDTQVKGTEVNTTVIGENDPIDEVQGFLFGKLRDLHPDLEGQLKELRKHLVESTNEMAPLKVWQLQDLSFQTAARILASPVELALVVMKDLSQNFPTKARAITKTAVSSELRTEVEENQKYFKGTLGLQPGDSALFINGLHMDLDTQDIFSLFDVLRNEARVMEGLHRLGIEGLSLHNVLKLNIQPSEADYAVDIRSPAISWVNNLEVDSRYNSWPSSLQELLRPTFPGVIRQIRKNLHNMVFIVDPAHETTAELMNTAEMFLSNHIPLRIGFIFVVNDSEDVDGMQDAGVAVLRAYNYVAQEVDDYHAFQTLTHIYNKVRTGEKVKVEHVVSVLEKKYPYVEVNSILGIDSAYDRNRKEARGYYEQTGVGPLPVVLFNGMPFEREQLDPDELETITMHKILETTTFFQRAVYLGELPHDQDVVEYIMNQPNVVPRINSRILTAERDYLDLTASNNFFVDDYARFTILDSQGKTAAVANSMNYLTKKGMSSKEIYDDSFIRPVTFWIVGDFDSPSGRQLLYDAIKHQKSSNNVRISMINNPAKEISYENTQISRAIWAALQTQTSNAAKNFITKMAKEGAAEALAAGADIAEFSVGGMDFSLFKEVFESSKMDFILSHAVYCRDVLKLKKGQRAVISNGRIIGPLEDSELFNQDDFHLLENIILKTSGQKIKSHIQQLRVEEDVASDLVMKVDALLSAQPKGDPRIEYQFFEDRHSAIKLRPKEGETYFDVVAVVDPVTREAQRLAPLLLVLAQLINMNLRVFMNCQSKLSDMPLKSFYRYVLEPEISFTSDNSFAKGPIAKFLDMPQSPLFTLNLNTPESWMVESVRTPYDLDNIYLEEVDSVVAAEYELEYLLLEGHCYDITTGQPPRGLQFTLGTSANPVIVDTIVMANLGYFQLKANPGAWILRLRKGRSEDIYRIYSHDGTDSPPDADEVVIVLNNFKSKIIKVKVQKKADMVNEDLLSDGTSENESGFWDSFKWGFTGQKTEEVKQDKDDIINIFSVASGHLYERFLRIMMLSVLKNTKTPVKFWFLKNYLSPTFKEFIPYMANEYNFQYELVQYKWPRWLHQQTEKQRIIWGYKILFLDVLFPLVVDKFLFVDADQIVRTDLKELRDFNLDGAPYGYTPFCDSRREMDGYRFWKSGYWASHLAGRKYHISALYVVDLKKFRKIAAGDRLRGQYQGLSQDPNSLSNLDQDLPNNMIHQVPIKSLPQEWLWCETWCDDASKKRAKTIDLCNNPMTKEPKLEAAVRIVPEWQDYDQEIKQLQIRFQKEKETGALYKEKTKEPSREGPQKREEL
Sequence of SDF4 (human) (Q9BRK5 37-362 limits assumed): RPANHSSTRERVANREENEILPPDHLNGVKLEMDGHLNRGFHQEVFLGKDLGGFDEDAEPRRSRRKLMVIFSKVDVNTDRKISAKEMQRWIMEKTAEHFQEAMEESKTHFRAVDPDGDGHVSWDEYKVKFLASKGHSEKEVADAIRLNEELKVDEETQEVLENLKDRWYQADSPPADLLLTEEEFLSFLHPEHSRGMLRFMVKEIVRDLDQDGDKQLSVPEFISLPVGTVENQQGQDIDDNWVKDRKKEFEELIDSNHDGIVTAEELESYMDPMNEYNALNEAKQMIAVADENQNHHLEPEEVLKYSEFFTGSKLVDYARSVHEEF

On to “N-terminal FLAG tagged B3GNT2 (from UniProt Q9NY97 1-397) (enzyme)”, for which the co-IP mass spectrometry count is 0 in [1]; 3 in [2]; 2 in [3]; 3 in test [4]; 10 in test [5]; 2 in [6]. The co-IP mass spectrometry count in test [7] came out at 2; in [8], 4; in [9], 2; in test [10], 2; in test [11] it was 19; in [12], 4. In addition, the co-IP mass spectrometry count is 2 in test [13] and 3 in test [14].

For the substance “IgG control (Millipore Sigma 12-371) (antibody)”, the co-IP mass spectrometry count in test [15] was found to be 0; in test [16], 0; in test [17] it was 0; in test [18] it was 0; in test [19], 0; in test [20] it was 11. The co-IP mass spectrometry count in test [21], in test [22], in test [23], in test [24], in test [25] and in [26] was 0 each time. Besides, the co-IP mass spectrometry count in [27], in [28], in [29], in test [30], in test [31] and in test [32] was 0 throughout. For the same substance, the co-IP mass spectrometry count in test [33], in test [34], in test [35], in test [36] and in test [37] was 0 in each case.

The values above are taken from US20240261333A1, “NOVEL TARGETS FOR ENHANCING ANTI-TUMOR IMMUNITY” (THE BROAD INSTITUTE, INC., priority 2021, published 2024).
